Laboratory results as given in PMC2941729 (Molecular Microbiology, 2010).

Molecular target: the molecule itself
Assay: SEC

B1: G266DΔGAF–His (domain or fragment, Escherichia coli K12, UniProt P37013 171-504, looked up)
chain: MLPGDATPFEAVKQTQMIGLSPGMTQLKKEIEIVAASDLNVLISGETGTGKELVAKAIHEASPRAVNPLVYLNCAALPESVAESELFGHVKGAFTDAISNRSGKFEMADNGTLFLDEIGELSLALQAKLLRVLQYGDIQRVGDDRCLRVDVRVLAATNRDLREEVLAGRFRADLFHRLSVFPLSVPPLRERGDDVILLAGYFCEQCRLRQGLSRVVLSAGARNLLQHYSFPGNVRELEHAIHRAVVLARATRSGDEVILEAQHFAFPEVTLPTPEVAAVPVVKQNLREATEAFQRETIRQALAQNHHNWAACARMLETDVANLHRLAKRLGLKD
B1: binds.
